Reference: US20170166631A1 (NEURIMMUNE, published 2017)

B1: NI-302.7D8 (antibody, V domains shown)
VH: QVQLVQSGSELKKPGASVKVSCKASGYNFNNYAINWLRQAPGQGLEWMGWINTITGHPTYAQGFKGRFVFSLDTSVSTAYLQISSLKPEDTAVYYCARTYSNYGEFDYWGQGTLVTVSS
VL: QSALTQPASVSGSRGQSITISCTGTSSDVGSYNLVSWYQQYPGKAPKLIIHEGSERPSGVSNRFSGSKSGNTASLTISGLQAEDEADYYCCSYAGTTTFVLFGGGTKLTVL
notes: also called anti-poly Q/P domain antibody
B2: NI-302.64E5 (antibody, V domains shown)
VH: EVQLVETGGGLVKPGGSLRLSCAASGFTFDQAWMSWVRQVPGKGLEWVGRIKTKTEGEATDYAAPVRGRFTISRDDSEDTVFLQMNSLKTEDTALYYCTSTGVLAAAVDVYWGQGTLVTVSS
VL: DIQLTQSPDSLAVSLGERATMTCKSSQSLFYSYNNENYLAWYQQRPGQPPKLLIYWASTRESGVPDRFSGSGSGTDFTLTISSLQAEDVAVYYCQQYYSTPQTFGQGTKVDIK
B3: NI-302.8M1 (antibody, V domains shown)
VH: EVQLVQSGAEVKKPGASVKVSCKASGYTFTIYYMHWVRQAPGQGLEWMGGISPSGAHTMYAQNFQGRVTVTRDTSTSTVYMELSSLRSEDTAVYYCARGSTVTNYRPFDYWGQGTLVTVSS
VL: DIQMTQSPSSLSASVGDRVTITCRASQDISNYLAWYQQKPGKVPKLLIFAASTLQSGVPSRFGGSGSGTDFTLTISSLQPEDVATYYCQNYNSGPPPFGPGTKVDIK
B4: NI-302.15F9 (antibody, human IgG1, V domains shown)
VH: EVQLVESGGGLVTPGGSLRLSCEASGFLFKNSSMNWVRQTPGKGLEWVSSIDTSATNYKYYADSVKGRFTISRDDATNSLYLQMNSLRADDTATYYCARGYYTPRDFDYWGQGTLVTVSS
VL: DVVMTQSPQTLSVSLGQAASISCRSSQSLLYRDNNTYLNWFHQRPGQSPRRLIYRASDRDSGVPDRFSGGGSGTDFTLKISGVEAEDVGTYYCMQGTHWPRTFGQGTKVEIK
notes: Expressed as complete human IgG1
B5: NI-302.11A4 (antibody, V domains shown)
VH: EVQLVESGGGLIQPGGSLRLSCAASGFPVSSSYMSWVRQAPGEGLEWVSVLYRDGDTYYADSVQGRFTISRDNSQNTFYLQMNSLKAEDTAVYYCAGDRRSSHYYYGMDVWGQGTTVTVSS
VL: EIVMTQSPGTLSLSPGERATLSCRASQSVSSSYFAWYQQKPGQAPRLLIYGTSRRATAIPDRFSGSGSGTDFTLTISRLEPEDFAVYYCQQYGSSWTFGPGTKVEIK
B6: NI-302.33C11 (antibody, V domains shown)
VH: EVQLVESGGGVVQPGNSLRLSCAASGFRFSDFGMHWVRQAPGKGLEWLALIWYDGGYKYYADSVKGRFTISRDNSKNTMFLQMNSLRAEDTAVYYCATHLEYCSRTTCYLGHWGQGTLVTVSS
VL: DIQLTQSPSFLSASVGDTVTFTCRASQGISDYLAWFQQKPGIAPKLLIYAASTLQTGVPSRFSGSGSGTEFTLTIRSLQSEDFGTYYCQQLKTYPYTFGQGTKVEIK
notes: also called anti-polyP domain antibody
B7: NI-302.55D8 (antibody, V domains shown)
VH: QVQLVQSGSEVKKPGASVKVSCKASGYTFTDYYIHWVRQAPGQGLEWMGRINPNNGGTNYAQNFQGWVTMTRDTSISTAYMELSRLRSDDTAVYYCARVGGELLREGGYHYYMDVWGKGTTVTVSS
VL: QSVLTQPPSVSGAPGQRVTISCTGNSSNIGAGYDVHWYQQLPGTAPKLLIFDNTNRPSGVPDRFSGSKSGTSASLAITGLQAEDEANYHCQSYDNSLSGSWVFGGGTKLTVL
B8: NI-302.22H9 (antibody, V domains shown)
VH: EVQLVESGGGLVHPWGSLRVSCAASGFSVSNYAITWVRQAPGKGLEYISVIYRDGRTYYGDSVRGRFTISRDDSKNTIYLQMNSLRFEDTAVYYCARAHGQYYYGVDVWGQGTTVTVSS
VL: DVVMTQSPLSLSVSPGEPASISCRSSQSLLHSNGYNYLDWYRQKPGQSPQLLIYLNSNRASGVPDRFSGSGSGTEFTLTISRVEAEDVGVYYCMQSLQTFTFGGGTKVEIK
B9: NI-302.44D7 (antibody, human IgG1, V domains shown)
VH: EVQLVQSGGGLVQPGGSLRLSCAASGFTFSSYAMSWVRQAPGKGLEWVSGIGYSDTSTYYADSVKGRFTVSRDISKNTLYLQMNSLRAEDTAVYYCAKGTRDYYGMDVWGQGTMVTVSS
VL: QTVVTQEPSFSVSPGGTVTLTCGLSSGSVSTSYYPSWYQQTPGRAPRTLIYSTNTRSSGVPDRFSGSILGNKAALTITGAQADDESDYYCVLFMGSGIGVFGGGTRLTVL
notes: as for B4
B10: NI-302.71F6 (antibody, V domains shown)
VH: QVQLQQWGAGLLKPSETLSLTCAVYGGSLSGYYWSWIRQPPGKGLEWIGEVNHSGGTNLNSSLKSRVIISVDKSKKQFSLKLSSVTAADTAMYFCARGYSYDPKYYFDSWSQGTLVTVSS
VL: QSALTQPASVSGSPGQAITISCTGTSSDIGSYDFVSWYQQDPGKAPKVIIYGVNKRPSGVSNRFSGSKSGNTASLTISGLQADDEADYYCCSYAGSTTWVFGGGTKLTVL
B11: NI-302.35C1 (antibody, V domains shown)
VH: EVQLVESGGNLVQPGGSLRLSCTASGFTFSITALSWVRQAPEKGPQWVSAITGNAYGTYYADSVKGRFTISRDNAKNTLYLQMNGLRAEDTAIYYCVKGIASDSSGYSAFWGPGTLVTVSS
VL: EIVLTQSPATLSLSPGERATLSCRASQSVDNQFAWYQQKPGQAPRLLIYDASRRAPGIPDRFSGSGSGTDFTLTISSLEPEDFAIYYCQHRYTWLYTFGQGTRLEIK
notes: also called anti-C-terminal domain antibody
B12: NI-302.15E8 (antibody, V domains shown)
VH: EVQLVESGGGLIQPGGSLRLSCAVSGFTVSSYSMNWVRQAPGKGLEWVSYTSSSRSNTKKYADSVKGRFTISRDNARNSLYLQMNSLRDEDTAVYYCARAGDFGELLTGEGYYGMDVWGQGTTVTVSS
VL: SYELTQPPSVSVSPGQTATITCSGDELGDKYVGWYQQKPGQSPLLVIYQDAKRPSGIPERFSGSNSGNTATLTISGTQAMDEADYYCQAWDSGTMVFGGGTRLTVL
notes: also called anti-N-terminal domain antibody
B13: NI-302.37C12 (antibody, V domains shown)
VH: EVQLVESGGGLVQPGGSLRLSCVASALTVTNSQMTWVRRAPGRGLEWVSVIYTSGSAYYADSVKGRFTISRDNSKNTVFLQMNSLRVEDTAVYYCAKGPSAYYYGLDLWGQGTTVTVSS
VL: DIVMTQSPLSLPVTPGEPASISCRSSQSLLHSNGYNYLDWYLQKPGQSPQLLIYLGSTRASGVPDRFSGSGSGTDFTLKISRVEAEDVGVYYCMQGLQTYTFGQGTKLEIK
B14: NI-302.63F3 (antibody, V domains shown)
VH: QVQLVQSGSAFKKPGTSVKVSCKASGYTFETRSMNWVRQAPGQGLEYMGWINTNTGNRTYVQAFRGRFVFSLDTSVSTAYLQISNLKTEDTAVYYCARGAGGGYWFDSWGQGTLVTVSS
VL: DIQMTQSPDSLAVSLGERATINCKSNQSLFYSSNNNNYLAWYQHKSGQPPKLLVYWGSTRESGVPDRFSGSGSGTDFTLTISSLQAEDVAIYYCHQYYHNPYTFGQGTKLEIK
notes: also called anti-P-rich domain antibody; anti-proline-rich domain antibody
B15: NI-302.4A6 (antibody, V domains shown)
VH: EVQLVESGGGLVQPGGSLRLSCAASGFTFSAYAMSWVRQAPGKGLEWVSTISGSGGSTYYADSVKGRFSISRDNSKNTLYLQMNSLRAEDTAVYFCAKVTTELYGANSYYYYMDVWGKGTTVTVSS
VL: EIVLTQSPGTLSLSPGERATLSCRASQSVVSRYLAWYQQKPGQAPRLLIYGASSRATGIPDRFSGSGSGTDFTLTISRLEPEDFAMYYCQLYGNSQTFGQGTKVEIK
B16: NI-302.74C11 (antibody, V domains shown)
VH: EVQLVQSGTEVQKPGASVKVSCKASGYSFTGYFLHWVRQAPGQGLEWMGWINPNSGDTNYAEKFRGRIIMTRDTSVSTAHMELSSLRFDDTALYYCTREAPDPGAETDVWGQGTTVTVSS
VL: QSVLTQPPSVSVSPGQTARITCSGDAVPKQYIYWYQQKPGQAPILVIYKDTQRPSGIPERFSGSNSGTTVTLTITGVQADDEGDYYCQSADSSATWVFGGGTKLTVL
B17: NI-302.6N9 (antibody, human IgG1, V domains shown)
VH: EVQLVESGGDLVQPGGSLRLSCVVSGFTFSSYAMTWVRQAPGKGLAWVSTISATGGSTFYTDSVRGRFTISRDNSKNTLYLQMNSLRTDDTAIYYCVKDLFGVDTSYYGMDVWGQGTTVTVSS
VL: EIVLTQSPGTLSLSPGERATLSCRPSQSVSGRYVAWYQQKPGQAPRLLFYAASNRAIGIPDRFSGSGSGTDFTLTISRLEPEDFAVYYCQHYGASSYTFGPGTKVDIK
notes: as for B4

Columns and labels:
[1] = target: T1, GST-HttExon1Q21 (recombinant huntingtin exon 1 protein with 21 polyQ repeats fused to an N-terminal GST tag) (human, UniProt P08515 1-218 = GST; P42858 1-88); test: direct ELISA, antigen coated at 5 ug/ml
T1 construct: Expressed in E. coli BL21; also called GST-HD21; soluble GST-HD21; not shown: PreScission cleavage site

[2] = target: T2, HD49 (huntingtin exon 1 protein with 49 polyQ repeats after cleavage of the GST tag; aggregation reaction) (human, UniProt P42858 1-88); test: direct ELISA; reference HD21; aggregated or GST-fused form not said
T2 construct: domain: Exon1; Residues left by the protease site are not described; Aggregated preparation or time-resolved aggregation reaction; also called aggregated HD49; aggregated HTT Exon1 HD49

[3] = target: T3, HD35 (huntingtin exon 1 protein with 35 polyQ repeats after cleavage of the GST tag; aggregation reaction) (human, UniProt P42858 1-88); test: filter retardation assay (SDS stable aggregates)
T3 construct: domain: Exon1; Residues left by the protease site are not described; Time-resolved aggregation reaction; also called HD35 aggregates; HttExon1Q35

[4] = target: T4, HD21 (huntingtin exon 1 protein with 21 polyQ repeats after cleavage of the GST tag; aggregation reaction) (human, UniProt P42858 1-88); test: direct ELISA, antigen coated at 5 ug/ml
T4 construct: domain: Exon1; Residues left by the protease site are not described; Aggregated preparation or time-resolved aggregation reaction; also called aggregated HD21; HttExon1Q21

[5] = target: T1, GST-HttExon1Q21 (recombinant huntingtin …); test: direct ELISA
[6] = target: T4, HD21 (huntingtin exon 1 protein with 21 …); test: direct ELISA (Example 25, FIG. 20)

T4 sequence (P42858 1-88 limits assumed, change not shown): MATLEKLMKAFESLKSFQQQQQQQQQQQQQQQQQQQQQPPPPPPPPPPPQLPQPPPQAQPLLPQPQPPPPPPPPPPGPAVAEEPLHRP
T1 sequence (P08515 1-218, tags or fused parts left off): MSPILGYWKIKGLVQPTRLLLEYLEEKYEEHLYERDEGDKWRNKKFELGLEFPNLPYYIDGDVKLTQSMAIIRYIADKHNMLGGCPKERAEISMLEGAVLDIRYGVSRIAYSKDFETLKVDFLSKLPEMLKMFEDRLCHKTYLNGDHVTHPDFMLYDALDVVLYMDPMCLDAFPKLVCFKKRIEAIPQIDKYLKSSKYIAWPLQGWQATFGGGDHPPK
T3 sequence (P42858 other isoform, or with tags, fused parts or gaps limits assumed): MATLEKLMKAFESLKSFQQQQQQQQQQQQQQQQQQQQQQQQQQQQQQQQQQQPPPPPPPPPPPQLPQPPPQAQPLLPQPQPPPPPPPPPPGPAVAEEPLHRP
T2 sequence (P42858 other isoform, or with tags, fused parts or gaps limits assumed): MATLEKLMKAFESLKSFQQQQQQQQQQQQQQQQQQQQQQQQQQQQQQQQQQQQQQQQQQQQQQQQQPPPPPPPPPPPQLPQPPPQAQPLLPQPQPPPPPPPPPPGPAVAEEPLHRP

| Binder | binding result [1] | also measured |
| --- | --- | --- |
| B1 | binds | – |
| B2 | binds | – |
| B3 | binds | – |
| B4 | – | fold preference of HD49 vs. HD21 [2]: ~5 fold |
| B5 | binds | – |
| B6 | – | EC50 [1]: ~0.1 nM |
| B7 | binds | – |
| B8 | binds | – |
| B9 | – | binding result [3]: no binding (tested: 0.2 µg/ml primary antibody) |
| B10 | binds | binding result [4]: binds |
| B11 | binds | – |
| B12 | – | binding result [4]: binds; binding result [5]: binds |
| B13 | binds | binding result [3]: no binding (tested: 0.2 µg/ml primary antibody) |
| B14 | binds | binding result [4]: binds |
| B15 | binds | – |
| B16 | binds | binding result [4]: binds |
| B17 | – | binding result [6]: binds |
